According to the Immune Epitope Database (IEDB):

Legend:
[1] = molecular target: HLA-A*26:02; assay: IEDB peptide-MHC binding, purified MHC/competitive/fluorescence; filed as Kd, often an IC50 or EC50 that approximates it; ≥ and ≤ were set here for values at or beyond the usual limits of such assays; details: source organism: Francisella tularensis subsp. tularensis FSC198
[2] = molecular target: HLA-B*57:01; assay: as above; details: source organism: Francisella tularensis subsp. tularensis FSC198
[3] = molecular target: HLA-A*68:02; assay: as above
[4] = molecular target: HLA-A*31:01; assay: as above; details: source organism: Francisella tularensis subsp. tularensis FSC198
[5] = molecular target: HLA-B*15:17; assay: as above; details: source organism: Francisella tularensis subsp. tularensis FSC198
[6] = molecular target: HLA-A*26:03; assay: as above
[7] = molecular target: HLA-A*02:01; assay: as above; details: source organism: Francisella tularensis subsp. tularensis FSC198
[8] = molecular target: HLA-B*15:09; assay: IEDB peptide-MHC binding, purified MHC/direct/fluorescence; filed as Kd, often an IC50 or EC50 that approximates it; ≥ and ≤ were set here for values at or beyond the usual limits of such assays; details: source organism: Francisella tularensis subsp. tularensis FSC033
[9] = molecular target: HLA-A*11:01; assay: as above
[10] = molecular target: HLA-A*01:01; assay: as above
[11] = molecular target: HLA-B*15:01; assay: as above
[12] = molecular target: HLA-B*58:01; assay: as above
[13] = molecular target: HLA-B*08:02; assay: as above
[14] = molecular target: HLA-B*18:01; assay: as above
[15] = molecular target: HLA-B*07:02; assay: as above
[16] = molecular target: HLA-B*08:01; assay: as above
[17] = molecular target: HLA-A*24:03; assay: as above; details: source organism: Francisella tularensis subsp. holarctica LVS
[18] = molecular target: HLA-B*40:01; assay: as above
[19] = molecular target: HLA-A*24:02; assay: as above
[20] = molecular target: HLA-A*69:01; assay: as above
[21] = molecular target: HLA-A*26:01; assay: as above
[22] = molecular target: HLA-B*44:02; assay: as above
[23] = molecular target: HLA-A*03:01; assay: as above
[24] = molecular target: HLA-B*27:05; assay: as above
[25] = molecular target: HLA-B*46:01; assay: as above
[26] = molecular target: HLA-A*02:01; assay: as above
[27] = molecular target: HLA-A*31:01; assay: as above
[28] = molecular target: HLA-B*15:01; assay: IEDB peptide-MHC binding, purified MHC/competitive/fluorescence; filed as Kd, often an IC50 or EC50 that approximates it; ≥ and ≤ were set here for values at or beyond the usual limits of such assays; details: source organism: Mycobacterium tuberculosis C
[29] = molecular target: HLA-A*30:01; assay: as above; details: source organism: Mycobacterium tuberculosis C
[30] = molecular target: HLA-B*07:02; assay: as above; details: source organism: Mycobacterium tuberculosis C
[31] = molecular target: HLA-B*08:01; assay: as above; details: source organism: Mycobacterium tuberculosis C
[32] = molecular target: HLA-B*48:01; assay: IEDB peptide-MHC binding, purified MHC/direct/fluorescence; filed as Kd, often an IC50 or EC50 that approximates it; ≥ and ≤ were set here for values at or beyond the usual limits of such assays; details: source organism: Mycobacterium tuberculosis
[33] = molecular target: HLA-B*08:03; assay: as above; details: source organism: Mycobacterium tuberculosis C
[34] = molecular target: HLA-B*57:01; assay: as above; details: source organism: Mycobacterium tuberculosis
[35] = molecular target: HLA-B*15:17; assay: as above; details: source organism: Mycobacterium tuberculosis
[36] = source organism: Francisella tularensis subsp. tularensis FSC198
[37] = source organism: Francisella tularensis subsp. holarctica LVS
[38] = source organism: Francisella tularensis subsp. tularensis FSC033
[39] = source organism: Influenza A virus (A/Puerto Rico/8/34/Mount Sinai(H1N1))
[40] = source organism: Influenza A virus (A/goose/Hong Kong/8/1976(H1N1))
[41] = source organism: Influenza A virus(A/swine/Shandong/fNY/2003(H9N2))
[42] = source organism: Shigella flexneri
[43] = source organism: Influenza A virus (A/chicken/Vietnam/5/2003(H5N1))
[44] = source organism: Mycobacterium tuberculosis C
[45] = source organism: Mycobacterium tuberculosis

IYTVIYYIF was tested, and the Kd [1] was 1.13 µM, the Kd [2] was ≥ 20 µM and the Kd [3, 36] was 3.96 µM. The Kd [4] was ≥ 20 µM, the Kd [5] was 0.439 µM and the Kd [6, 36] was ≥ 20 µM. The Kd [7] was ≥ 20 µM, the Kd [8] was ≥ 20 µM and the Kd [9, 37] was ≥ 20 µM. The Kd [10, 37] was ≥ 20 µM, the Kd [11, 37] was ≥ 20 µM and the Kd [12, 38] was 0.15 µM. The Kd [13, 38] was ≥ 20 µM, the Kd [14, 38] was 8.93 µM and the Kd [15, 37] was ≥ 20 µM. For the same sequence, the Kd [16, 38] was ≥ 20 µM and the Kd [17] was 0.27 µM.
KTTYWWDGL was tested, and the Kd [18, 39] was ≥ 5 µM, the Kd [9, 40] was ≥ 20 µM and the Kd [19, 40] was ≥ 20 µM. The Kd [10, 40] was ≥ 20 µM, the Kd [11, 40] was ≥ 20 µM and the Kd [12, 40] was ≥ 5 µM. The Kd [20, 40] was ≥ 20 µM, the Kd [21, 41] was ≥ 20 µM and the Kd [22, 40] was ≥ 20 µM. For the same sequence, the Kd [23, 40] was ≥ 20 µM, the Kd [24, 40] was ≥ 20 µM and the Kd [25, 40] was ≥ 20 µM. For the same sequence, the Kd [13, 41] was ≥ 20 µM, the Kd [15, 40] was ≥ 20 µM and the Kd [26, 40] was ≥ 20 µM. The Kd [16, 40] was ≥ 20 µM.
With LSSIGIPAY the Kd [18, 42] was ≥ 20 µM, the Kd [9, 42] was ≥ 20 µM and the Kd [19, 42] was ≥ 20 µM. The Kd [10, 42] was 0.366 µM, the Kd [11, 42] was 0.304 µM and the Kd [12, 42] was 0.178 µM. The Kd [20, 42] was ≥ 20 µM, the Kd [27, 42] was ≥ 20 µM and the Kd [22, 42] was ≥ 20 µM. For the same sequence, the Kd [23, 42] was ≥ 20 µM, the Kd [24, 42] was ≥ 20 µM and the Kd [15, 42] was ≥ 20 µM. The Kd [26, 42] was ≥ 20 µM.
For QTYDWTLNR, the Kd [18, 43] was ≥ 20 µM, the Kd [19, 43] was ≥ 20 µM and the Kd [10, 43] was ≥ 20 µM. The Kd [11, 43] was ≥ 20 µM, the Kd [12, 43] was ≥ 20 µM and the Kd [22, 43] was ≥ 20 µM. The Kd [23, 39] was 0.376 µM, the Kd [24, 43] was ≥ 20 µM and the Kd [25, 43] was ≥ 20 µM. For the same sequence, the Kd ([13]; source organism: Influenza A virus(A/swine/Henan/3/2004(H9N2))) was ≥ 20 µM, the Kd [14, 43] was ≥ 20 µM and the Kd [15, 43] was ≥ 20 µM. The Kd [26, 43] was ≥ 20 µM and the Kd [16, 43] was ≥ 20 µM.
For RYLNIYQLW, the Kd ([19]; source organism: Cryptosporidium parvum Iowa II) was 0.002 µM.
In the case of TIHLATAPK, the Kd [28] is reported as ≥ 20 µM, the Kd [3, 44] is reported as 0.76 µM and the Kd [6, 44] is reported as ≥ 20 µM. For the same sequence, the Kd [29] was 0.0002 µM, the Kd [30] was ≥ 20 µM and the Kd [31] was ≥ 20 µM. The Kd [32] was ≥ 20 µM, the Kd [18, 45] was ≥ 20 µM and the Kd [9, 45] was 0.0087 µM. The Kd [33] was ≥ 20 µM, the Kd [34] was ≥ 20 µM and the Kd [10, 45] was ≥ 20 µM. For the same sequence, the Kd [12, 45] was ≥ 20 µM, the Kd [20, 45] was 2.33 µM and the Kd [27, 45] was 0.653 µM. The Kd [21, 44] was ≥ 20 µM, the Kd [35] was ≥ 20 µM and the Kd [24, 45] was ≥ 20 µM. For the same sequence, the Kd [25, 45] was ≥ 20 µM, the Kd [13, 44] was ≥ 20 µM and the Kd [14, 45] was ≥ 20 µM.
